Bridge positions count the residues as written; N and C are the ends. Square brackets hold non-standard residues; d marks the D form. Primed or numbered codes have the meaning given here. Side chains are listed from the residue outwards. PEG4″ = PEG chain having 4 ethylene glycol repeat units; 4‑arm scaffold = not defined here
What was measured:
Test in all cases: cell-based or functional assay
[1] = target: T1, HIV-1 gp41 of strain HXB2 (HIV-1 strain HXB2, UniProt P04578 512-856)
[2] = target: HIV-1 gp41 of strain JRFL (HIV-1 strain JRFL)
[3] = target: T1, HIV-1 gp41 of strain HXB2; remark: listed apart in the source
[4] = target: HIV-1 gp41 of strain JRFL (HIV-1 strain JRFL); remark: listed apart in the source

B1: 40 kD PEG-PEG24-PIE12 trimer (peptide)
peptide: Ac-[dH][dP][dC][dD][dY][dP][dE][dW][dQ][dW][dL][dC][dE][dL]GK-NH2
modifications: disulfide 3-12 (inferred); not fully specified (residue 16); also: trimer: three PIE12 monomers on 4-arm scaffold, fourth arm PEG24 carrying 40 kDa Y-branched PEG
fold reduction of potency against unconjugated PIE12-trimer (HXB2) [1]: 13 fold | fold reduction of potency against unconjugated PIE12-trimer (JRFL) [2]: 34 fold | Antiviral potency, IC50, HXB2 pseudovirion entry assay [3]: 9.5 nM | Antiviral potency, IC50, JRFL pseudovirion entry assay [4]: 71 nM

B2: CPT24-5 kD (peptide)
peptide: Ac-[dH][dP][dC][dD][dY][dP][dE][dW][dQ][dW][dL][dC][dE][dL]G[dK]([PEG4″-4‑arm scaffold])-NH2
modifications: disulfide 3-12 (inferred); reading uncertain; also: PIE12 trimer on 4-arm scaffold, fourth arm 5 kDa linear polydisperse PEG with thiocholesterol
Antiviral potency, IC50, JRFL pseudovirion entry assay [4]: 0.026 nM

B3: Palmitate-conjugated PIE12-trimer (peptide)
peptide: Ac-[dH][dP][dC][dD][dY][dP][dE][dW][dQ][dW][dL][dC][dE][dL]G[dK]([PEG4″-4‑arm scaffold])-NH2
modifications: disulfide 3-12 (inferred); reading uncertain; also: trimer: three PIE12 monomers on 4-arm scaffold, fourth arm PEG24 with D-cysteine bridge carrying palmitate
fold increase in potency against unconjugated PIE12-trimer (HXB2) [1]: 3 to 4 fold | fold increase in potency against unconjugated PIE12-trimer (JRFL) [2]: 3 to 4 fold | Antiviral potency, IC50, HXB2 pseudovirion entry assay [3]: 0.225 nM | Antiviral potency, IC50, JRFL pseudovirion entry assay [4]: 0.54 nM
